{"source": "patent US20060241031A1", "about": "(priority 2003, published 2006)", "key": {"[1]": {"molecular_target": "T1, LL-37 (Homo sapiens, UniProt P49913)", "T1 construct": "LL-37, […]; (Mw 4492) was synthesized by Innovagen AB; purchased Innovagen AB, Lund, Sweden; host or cells: chemical synthesis", "T1 sequence (P49913 134-170 limits assumed)": "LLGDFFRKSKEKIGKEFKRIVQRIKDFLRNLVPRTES", "assay": "Indirect ELISA, SIC homologues coated, binding of LL-37", "conditions": "purified SIC homologues on microtiter plates; M1 protein negative control"}, "[2]": {"molecular_target": "T1, LL-37", "assay": "Antimicrobial assay, inhibition of bactericidal effect of LL-37", "format": "cell-based", "description": "(§1) Antimicrobial assay—AP1 bacteria were grown to mid-log phase in TH broth, washed and diluted in 10 mM Tris-HCl, pH 7.5, containing 5 mM glucose. 50 μl bacteria (2×10^6 colony forming units (cfu)/ml) were incubated together with α-defensin or LL-37 at various concentrations for 2 h at 37° C. In subsequent experiments, bacteria were incubated with α-defensin and LL-37 at a concentration of 448 nM together with different concentrations of protein SIC or M1 protein and the reactions were carried out for 2 h (α-defensin) or 1 h (LL-37). To quantitate the bactericidal activity serial dilutions of the incubation mixtures were plated on TH agar, incubated overnight at 37° C., and the number of cfus were determined."}, "[3]": {"molecular_target": "T2, α-defensin (Homo sapiens, UniProt P59665)", "T2 construct": "α-defensin (HNP-1), […]; (Mw 3442) was purchased from Sigma; purchased Sigma", "T2 sequence (P59665 65-94 limits assumed)": "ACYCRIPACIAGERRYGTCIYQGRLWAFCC", "assay": "Antimicrobial assay, inhibition of bactericidal effect of α-defensin", "format": "cell-based", "description": "as §1"}, "[4]": {"test_system": "AP1 bacteria", "description": "as §1"}, "[5]": {"test_system": "AP1 bacteria", "remark": "listed apart in the source", "description": "Bacterial growth assay—AP1 bacteria were grown to stationary phase in TH broth. 200 μl of TH was inoculated with 5 μl of the bacterial suspension in 96-well plates (Falcon) at 37° C. At early logarithmic phase various amounts of LL-37 was added and growth was followed by measuring the absorbance at 490 nm (using a BioRad 550 microplate reader). The amount of protein SIC in the growth medium was estimated by ELISA (see below)."}, "[6]": {"test_system": "M1 protein", "assay": "Indirect ELISA, binding of antibacterial peptides to coated M1 protein (control)", "set-up": "species or system S. pyogenes", "conditions": "M1 protein applied to plastic wells as control"}, "[7]": {"test_system": "protein SIC", "conditions": "SIC applied to plastic wells, peptide added, detected with antibodies"}, "[8]": {"test_system": "protein SIC", "conditions": "peptides on Immobilon filters probed with 125I-labelled SIC from M1 strain AP1", "description": "Slot-binding and SDS-polyacrylamide gel electrophoresis—Peptides were applied to polyvinylidene difluoride (PVDF) membranes (Immobilon, Millipore) using a Milliblot-D system (Millipore). Membranes were blocked in TBS (0.05 M Tris-HCl, pH 7.5, 0.15 M NaCl) containing 3% bovine serum albumin (SA), incubated with ^125I-labelled protein SIC for 3 h, and washed with TBS containing 0.05% Tween-20. Autoradiography was carried out using Kodak x-Omat AR films and regular intesifying screens."}, "[9]": {"molecular_target": "LL-37 (human)", "assay": "cell-based or functional assay"}}, "note": "Like-named read-outs stand apart in the source and are kept apart here."}
{"substance": "SIC: streptococcal inhibitor of complement, purified from S. pyogenes strain AP1 of serotype M1", "values": [{"measurement": "binding of LL-37 (ELISA, FIG. 3B)", "setting": "[1]", "result": "showed binding of LL-37 clearly above M1 protein"}, {"measurement": "blocking of antibacterial activity of LL-37", "setting": "[2]; LL-37 0.448 μM, AP1 bacteria, M1 protein at a maximum of 0.72 μM", "result": "blocks"}, {"measurement": "efficiency in blocking LL-37 relative to α-defensin", "setting": "[2]; from inhibition curves, FIG. 2 right panel", "result": "about ten"}, {"measurement": "potency in blocking α-defensin and LL-37 relative to the M12 and M55 homologues", "setting": "[3]; from inhibition curves FIG. 3C, both peptides at 448 nM", "result": "5-10 times"}, {"measurement": "blocking of antibacterial activity of α-defensin", "setting": "[3]; α-defensin 0.448 μM, AP1 bacteria, 2 h, M1 protein at a maximum of 0.72 μM", "result": "blocks"}]}
{"substance": "human antibacterial peptide LLGDFFRKSKEKIGKEFKRIVQRIKDFLRNLVPRTES (Mw 4492), synthesized by Innovagen AB [LL-37]", "values": [{"measurement": "concentration required for 100% killing", "setting": "[4]; AP1 washed and resuspended in buffer, no SIC present, 2 h 37° C.", "result": "approximately 0.4 μM"}, {"measurement": "EC50", "setting": "[4]; read-out: concentration of LL-37 required to kill 50% of the bacteria, bacteria washed to remove SIC before addition of LL-37", "result": 0.2, "unit": "µM"}, {"measurement": "fold increase of concentration to kill 50% with secreted SIC versus washed bacteria", "setting": "[5]; 11.1 μM compared to 0.2 μM", "result": "more than 50 times"}, {"measurement": "EC50", "setting": "[5]; read-out: concentration of LL-37 required to kill 50% of the bacteria, AP1 at early logarithmic growth phase, SIC 4-5 μg/ml growth medium", "result": 11.1, "unit": "µM"}, {"measurement": "interaction with M1 protein (ELISA, FIG. 1B)", "setting": "[6]", "result": "at background level"}, {"measurement": "affinity for SIC (ELISA, FIG. 1B)", "setting": "[7]", "result": "showed affinity"}, {"measurement": "interaction with 125I-labelled SIC (slot-binding, FIG. 1A)", "setting": "[8]", "result": "interacts"}]}
{"substance": "protein SIC purified from S. pyogenes strain AP1 (serotype M1)", "values": [{"measurement": "efficiency in blocking LL-37 against blocking α-defensin, from inhibition curves", "setting": "[9]", "result": 10, "unit": "times"}, {"measurement": "fold rise of the LL-37 concentration required to kill 50% of the bacteria, with secreted SIC against washed bacteria", "setting": "[9]", "result": 50, "unit": "times"}]}
